This is an account of results in patent US20240010742A1 (RESEARCH DEVELOPMENT FOUNDATION, published 2024).

In one experiment the target is T1, FcγRI (human, UniProt P12314 16-288, limits assumed, biotinylated (BLI, beads)).
T1 construct: Recombinant receptor; also called FcgRI
In words: flow cytometry: hexameric Fc on FcγR-coated beads; y axis = mean fluorescence intensity. (In general: In flow cytometry, cells or beads pass a laser one at a time.)

Another experiment addresses T2, FcγRIIb (human, UniProt P31994 46-217, limits assumed, biotinylated (BLI, beads)).
T2 construct: Recombinant receptor on biosensors, SPR or beads; also called FcgRIIb; 2b
T2 sequence (looked up): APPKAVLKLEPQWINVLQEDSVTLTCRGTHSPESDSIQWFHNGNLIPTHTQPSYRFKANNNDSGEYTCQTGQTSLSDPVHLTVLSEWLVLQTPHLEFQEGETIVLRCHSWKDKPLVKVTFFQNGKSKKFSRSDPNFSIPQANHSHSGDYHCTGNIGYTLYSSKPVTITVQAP
The description is as above.

The target of experiment [1] is T3, FcγRIIIaV158 (human, UniProt P08637 17-208, biotinylated (BLI, beads)).
T3 construct: also called FcgRIIIaV158; 3aV
In words: flow cytometry: hexameric Fc on FcγR-coated beads; mean fluorescence intensity.

Experiment [2] concerns the target T4, FcgRIIIbNA2 (human, UniProt O75015 17-200, limits assumed).
T4 construct: also called FcγRIIIb
The description is as above.

Experiment [3] concerns the target T5, FcγRIIaR131 (human, UniProt P12318 36-218, limits assumed, biotinylated (BLI, beads)).
T5 construct: also called FcgRIIaR131; 2aR
T5 sequence (looked up): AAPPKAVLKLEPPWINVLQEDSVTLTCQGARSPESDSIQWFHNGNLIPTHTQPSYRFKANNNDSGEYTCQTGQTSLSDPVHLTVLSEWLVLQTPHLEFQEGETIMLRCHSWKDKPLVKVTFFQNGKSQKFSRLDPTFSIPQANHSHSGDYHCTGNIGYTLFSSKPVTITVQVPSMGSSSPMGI
The experiment is described as above.

Experiment [4] deals with T6, FcγRIIaH131 (human, UniProt P12318 36-218, limits assumed, biotinylated (BLI, beads)).
T6 construct: also called FcgRIIaH131
T6 sequence (looked up): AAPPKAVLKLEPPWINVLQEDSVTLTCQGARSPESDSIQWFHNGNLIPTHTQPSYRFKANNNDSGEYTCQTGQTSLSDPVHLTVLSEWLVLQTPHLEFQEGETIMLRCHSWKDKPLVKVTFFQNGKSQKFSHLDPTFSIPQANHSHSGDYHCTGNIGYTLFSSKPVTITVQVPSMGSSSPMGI
The description is as above.

The target in experiment [5] is T7, FcγRIIb on cells (Raji cells; THP-1 cells) (human, UniProt P31994 43-310).
T7 construct: whole, on cells; also called FcγR2b; FcgR2b
T7 sequence (looked up): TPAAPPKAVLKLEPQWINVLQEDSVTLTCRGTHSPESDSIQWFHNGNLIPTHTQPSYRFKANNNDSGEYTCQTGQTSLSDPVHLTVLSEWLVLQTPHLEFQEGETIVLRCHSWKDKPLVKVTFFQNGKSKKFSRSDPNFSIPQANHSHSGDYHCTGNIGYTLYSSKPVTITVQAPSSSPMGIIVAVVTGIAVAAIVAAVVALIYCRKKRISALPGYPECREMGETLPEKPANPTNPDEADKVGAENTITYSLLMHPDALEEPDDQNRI
The experiment in a line: flow cytometry: hexameric Fc on Raji cells (only FcγR2b among Fc receptors), 40 to 0.039 ug/ml; upper panel fluorescence intensity (axis without title), lower panel percent positive; last bar of each group = Ramos cells at 40 ug/ml. How it is done:
Error bars are standard error of the mean of triplicate samples. Statistical analysis was performed by one way ANOVA with Tukey s multiple comparisons test (***P 0.001, ****P 0.0001). […] The cell binding of hexameric Fc was tested with Raji cell which expresses only FcγR2b among Fc receptors (FIG. 13).

In experiment [6] the target is T5, FcγRIIaR131. In words: flow cytometry: hexameric Fc on FcγR-coated beads; y axis = mean fluorescence intensity.
Experiment [7] has as its target T3, FcγRIIIaV158. The experiment in a line: flow cytometry: hexameric Fc ('Hex 2b18KQS-1') on FcγR-coated beads; mean fluorescence intensity.
Experiment [8] deals with T4, FcgRIIIbNA2. Described as above.
The target of experiment [9] is T6, FcγRIIaH131. Described as above.

T3 sequence (P08637 17-208 F176V limits assumed): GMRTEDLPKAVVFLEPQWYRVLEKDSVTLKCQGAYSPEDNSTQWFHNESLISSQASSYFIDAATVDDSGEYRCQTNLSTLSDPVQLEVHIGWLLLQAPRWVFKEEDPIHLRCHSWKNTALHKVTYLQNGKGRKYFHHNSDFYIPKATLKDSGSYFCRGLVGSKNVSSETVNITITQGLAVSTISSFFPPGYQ
T4 sequence (O75015 17-200 limits assumed): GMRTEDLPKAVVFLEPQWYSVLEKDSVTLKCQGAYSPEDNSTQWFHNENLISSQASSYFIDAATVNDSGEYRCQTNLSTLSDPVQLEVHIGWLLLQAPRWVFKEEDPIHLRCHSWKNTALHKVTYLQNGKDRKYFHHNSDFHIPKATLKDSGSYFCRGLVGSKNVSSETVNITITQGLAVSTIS
T1 sequence (P12314 16-288 limits assumed): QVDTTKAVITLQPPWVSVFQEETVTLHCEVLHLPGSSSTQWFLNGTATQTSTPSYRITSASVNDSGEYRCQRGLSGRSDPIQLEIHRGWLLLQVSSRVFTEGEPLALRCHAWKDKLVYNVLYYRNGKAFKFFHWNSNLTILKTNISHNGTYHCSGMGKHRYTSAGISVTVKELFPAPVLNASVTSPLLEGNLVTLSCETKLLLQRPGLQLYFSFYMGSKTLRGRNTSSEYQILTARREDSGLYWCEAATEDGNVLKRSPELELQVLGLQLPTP

B1: Hex 2b18KQS-ST (glycosylated version of Hex 2b18KQS) (Fc fusion)
chain: EPKSCDKTHTCPPCPAPVDFRDPLVFLFPPKPKDTLMISRTPEVTCVVVDVSPEDPEVKFNWYVDGVEVHNAKTKPQEEQYNSTYRVVSVLTVCHQDWLNGKEYKCKVSNKLAPHPIIKTISKAKGQPREPQVYTLPPSRDELTKNQVSLTCLVKGFYPSDIAVEWESNGQPENNYKTTPPVLDSDGSFFLYSKLTVDKSRWQQGNVFSCSVMHEALHNHYTQKSLSLSPGKPTLYNVSLVMSDTAGTCY
notes: Ser298/Thr299 restored (glycosylated); forms a hexamer of Fc; also called glycosylated Hex 2b18KQS-ST Fc; hexameric 2b18KQS-ST Fc
For the molecule B1, the binding result was “binds” with FcγRI; “binds” in the experiment with FcγRIIb; “no binding” with FcγRIIIaV158 [1]; “no binding” with FcgRIIIbNA2 [2]; “no binding” with FcγRIIaR131 [3]; “no binding” in the experiment with FcγRIIaH131 [4]. Besides, the binding result in [5] is reported as “binds”.

B2: Hex 2b18K-ST (Fc fusion)
Fc-tailpiece fusion chain: EPKSCDKTHTCPPCPAPVDFRDPLVFLFPPKPKDTLMISRTPEVTCVVVDVDPEDPEVKFNWYVDGVEVHNAKTKPREEQYNSTYRVVSVLTVCHQDWLNGKEYKCKVSNKLAPHPIIKTISKAKGQPREPQVYTLPPSRDELTKNQVSLTCLVKGFYPSDIAVEWESNGQPENNYKTTPPVLDSDGSFFLYSKLTVDKSRWQQGNVFSCSVMHEALHNHYTQKSLSLSPGKPTLYNVSLVMSDTAGNCY
notes: also called Hex2b218K-ST; glycosylated hexameric construct of Fc variant 2b18K
Turning to B2, the binding result with FcγRI is “binds”; with FcγRIIb, “binds”; with FcγRIIaR131 [6] it was “binds”; with FcγRIIIaV158 [1], “no binding”; with FcgRIIIbNA2 [2], “no binding”; in the experiment with FcγRIIaH131 [4], “no binding”.

B3: Hex 2b18KQS (aglycosylated hexameric Fc) (Fc fusion)
chain: EPKSCDKTHTCPPCPAPVDFRDPLVFLFPPKPKDTLMISRTPEVTCVVVDVSPEDPEVKFNWYVDGVEVHNAKTKPQEEQYNGAYRVVSVLTVCHQDWLNGKEYKCKVSNKLAPHPIIKTISKAKGQPREPQVYTLPPSRDELTKNQVSLTCLVKGFYPSDIAVEWESNGQPENNYKTTPPVLDSDGSFFLYSKLTVDKSRWQQGNVFSCSVMHEALHNHYTQKSLSLSPGKPTLYNVSLVMSDTAGTCY
notes: forms a hexamer of Fc; also called Hex 2b18KQS Fc; Hex-2bKQS
On to B3, for which the binding result in the experiment with FcγRIIb is reported as “binds”; with FcγRIIaR131 [6] it was “binds”; with FcγRIIIaV158 [7], “no binding”; with FcgRIIIbNA2 [8], “no binding”; in the experiment with FcγRIIaH131 [9], “no binding”; in experiment [5], “binds”.
